Data from US20250276077A1, “EPHA2 ANTIBODIES” (Immunome, Inc., priority 2022, published 2025).

Columns and labels:
[1] = system: SKOV3, MDAMB231, and PC3 tumor cells
Protocol: This experiment tested the cytotoxicity of antibody-drug conjugates (“conjugates”) each comprising an EphA2 antibody directly conjugated via a lysine to a ZymeLink™ Auristatin (ZLA) payload having structure (1) as disclosed above on SKOV3, MDAMB231, and PC3 tumor cells. […] The average drug to antibody ratio (DAR) for each molecule ranges from 2.9 and 3.6 as determined by Mass Spectrometry. […] 2,500 cells were added to each well of a 96 well plate and incubated with different concentrations of directly conjugated primary antibody for 15 min at room temperature. Cells were then incubated for 72 h at 37° C. and 5% CO2. At the end of the incubation period, 100 μl CellTiter-Glo® was added to each well and allowed to incubate for 5-10 min at room temperature before reading luminescence in a BMG ClarioSTAR plate reader. Data were then normalized to a maximum lysis control and plotted using graph pad prism software.

PC3 tumors = test: In vivo PC3 model in NPG mice, ZLA-conjugated EphA2 antibodies; set-up: species or system mouse; details: ZLA conjugates in both IgG1 and IgG4 formats; 3 and 6 mg/kg; ~150 mm^3 and ~400 mm^3 PC3 tumors
Protocol: This experiment assessed the activity of ZLA-Conjugated EphA2 antibodies AB-010671-ZLA and AB-010699-ZLA in vivo. 2×10^6 PC3 cells were inoculated in 0.2 mL of 1:1 DPBS with Matrigel subcutaneously into each of the male NPG mice. Tumors were allowed to establish and then randomized at an average size of 150 mm^3 with 10 mice per treatment cohort. Treatment started at the day of randomization (Day 0) with weekly intravenous injections of the conjugates at the indicated doses. Body weight as well as tumor sizes were monitored twice weekly. Study was ended at day 35 after 5 doses. At endpoint, mice were euthanized, and tumors excised and weighted.
The assay was repeated with AB-010699 and AB-010671 in both IgG1 and IgG4 formats at 1, 3, and 6 mg/kg, AB-010016, and vehicle and isotype controls in mice carrying PC3 tumor cells measuring ˜150 mm^3 or ˜400 mm^3. […] FIG. 60B and FIG. 61B show the body weight of the mice over the course of the studies.

A549 cells = test: ADCC (KILR target cells, NK92 CD16 chimera effector cells); assay type: cell-based, human; details: A549 tumor cells
Protocol: To detect Antibody-dependent cellular cytotoxicity (ADCC), KILR™-transfected target cells were opsonized with different concentrations of the antibody at room temperature for 20 minutes. Following, NK92 cells carrying a mouse extracellular-human intracellular CD16 chimera were added at a 5:1 ratio of effector to target cells. After a 4 h co-culture at 37° C. and 5% CO2, pre-mixed KILR™ detection reagent was added to each well at equal volume and allowed to incubate for 30 min at room temperature in the dark before reading luminescence on a pate reader. Cytotoxicity was calculated after background (spontaneous release) subtraction and expressed as percent of a maximum lysis control.

B1: AB-010671: VH SEQ ID NO: 624, VL SEQ ID NO: 689; H107TI; L29SY; L92SH relative to AB-010357 (antibody, V domains shown)
VH: QVQLQQWGAGLLKPSETLSLTCAVYGGSFSDYYWSWIRQPPGKGLEWIGEINHRGSINYNNYNPSLKSRVTISVDTSKNQFSLKLSSVTAADTAVYYCAKPLRPHCINGVCYSGDAFDIWGQGTMVTVAS
VL: SYVLTQPPSVSVAPGQTARITCGGNNIGYKNVHWYQQKPGQAPVLVVYDDSDRPSGIPEQFSGSNSGNTATLTISRVEAGDEADYYCQVWDHSSDHVVFGGGTKLTVL
- cytotoxic activity of ZLA conjugates (in words) [1]: higher potency but similar maximum cytotoxicity compared to AB-010361-ZLA and AB-010361-IgG4-ZLA
- anti-tumor activity, repeat study (PC3 tumors): anti-tumor activity
- EC50 (A549 cells): ~6 pM
- ADCC - dAct rel. parent, Trial 1 (A549 cells; Trial 1, relative to parent antibody): 157.1%
- ADCC - dAct rel. parent, Trial 2 (A549 cells; Trial 2, relative to parent antibody): 106.7%
